Test results from PMC6978347 (2020).

Molecular target: T1, MEKK3^43–127 (MEKK3–PB1) (UniProt Q99759 43-127)
T1 chain: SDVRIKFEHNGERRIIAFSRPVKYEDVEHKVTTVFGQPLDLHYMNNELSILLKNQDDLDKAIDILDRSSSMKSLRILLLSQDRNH
Test: ITC

Kd: 13.3 nM
B1: NBR1^1–85 (human NBR1–PB1) (domain or fragment)
chain: MEPQVTLNVTFKNEIQSFLVSDPENTTWADIEAMVKVSFDLNTIQIKYLDEENEEVSINSQGEYEEALKMAVKQGNQLQMQVHEG
